Results on 1 molecule are retold here after article PMC11802746 (Nature Communications, 2025).

This test concerns the target GST-MST3 (human, UniProt Q9Y6E0-2 1-431). In words: pull-down.

B1: His-SUMO-tagged PGAM5 (25-289) (domain or fragment, human, UniProt Q96HS1 25-289, looked up)
chain: AVAVGKPRAGGDAEPRPAEPPAWAGGARPGPGVWDPNWDRREPLSLINVRKRNVESGEEELASKLDHYKAKATRHIFLIRHSQYHVDGSLEKDRTLTPLGREQAELTGLRLASLGLKFNKIVHSSMTRAIETTDIISRHLPGVCKVSTDLLREGAPIEPDPPVSHWKPEAVQYYEDGARIEAAFRNYIHRADARQEEDSYEIFICHANVIRYIVCRALQFPPEGWLRLSLNNGSITHLVIRPNGRVALRTLGDTGFMPPDKITRS
As to B1, the binding result is listed as “binds”.
